Laboratory results published in the nanobody polyreactivity screen of Harvey et al. (2022).

Assay: yeast display, Sf9 membrane polyspecificity reagent, FACS + sequencing; frameworks hold sequencing errors
Method in brief: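 Synthetic nanobody libraries on Saccharomyces cerevisiae BJ5465 were galactose-induced for 36–48 hours, stained 1 hour at 4 °C with 10% biotinylated, detergent-solubilized Sf9 membrane reagent and enriched on streptavidin microbeads. FACS then separated cells into low and high (top ~1%) gates by anti-HA (expression) and streptavidin (reagent binding) fluorescence. Genes were colony-PCR amplified, MiSeq 2 × 250 sequenced and CDR-length filtered. A clone's polyreactivity label is that of its gate of origin.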

Sequence | polyreactivity (PSR sort gate)
QVQLVESGGGLVQAGVSLRLSCAASGRIFGENAMGWYRQAPGEEREFVAVISISDASTYYADSVKGRFTISRDNAKNTVYFQMNSLKPEDTAVYYCAADLTDFLYVASDYCGQGTQVTVSS | low polyreactivity
QVQLVESGGGLVQAGGSLRLSCAASGRTFRYYAMGWYRQAPGKERELVAAISSGGRTNYADSVKGRFTISRDNAKNTVYLQMNSLKPEDTAVYYCAARNTRFWYQNNLYDYWGQGTQVTVSS | high polyreactivity
QVQLVESGGGLVQAGGSLRLICAASGRTFNWNAMGWYRQAPGKERELVAAITSGGNTYYADSVKGRFTISRDNAKNTVYLQMNSLKPEDTAVYYCAKVTYEGGYRYNYWGQGTQVTVSS | high polyreactivity
QVQLVESGGGLVQAGGSLRLSCAAYGYIFDHYAMGWYRQAPGKERELVAAINWSGGRTYYADSVKGRFTISRDNAKNTVYLQMNSLKPEDTAVYYCAAGGVSENDYWGQGTQVTVSS | high polyreactivity
QVQLVESGGGLVQAGGSLRLSCAASGFIFDTYAMGWYRQAPVKERELVAAISWTGTDTYYADSVKGRFTISRDNAKNTVYLQMNSLKPEDTAVYYCAARSRYKYSPSGDYWGQGTQVTVSS | high polyreactivity
QDQIVESWGGLVQSGGSLRLTCAASGRTFSTYAMGWYRQAPGKERELVAAISWRGARTYYADSVKGRFTISRDNAKNTVYLQMNSLKPEDTAVYYCAAAPYRYRRYEYWGQGTQVTVSS | high polyreactivity
QVQLVESGGGLVQAGGSLRLSCAASGFIFEYYVMGWYRQAPGKERELVAAISGSGGSTNYADSVKGRFTISRDNAKNTVYLQMNSLKPEDTAVYYCAARYYYFSANIFRYYYWGQGTQVTVSS | high polyreactivity
QVQLVESGGGLVQAGGSLRLSCAHSGFIFCNYAMGWYRHAPGKERELVAAITSGGTSTYYADSVKGRFTISRDNAKNTVYLQMNCLKPEDTAVYFCAAVTGLFSYWDYSAMYYWGQGTQVTVSS | high polyreactivity
QVQLVESGGGLVQAGGSLRLSCAASGSTFTAYAMGWYRHAPGKERELVAGITGNGGSTRYADSVKGRFTISRDNAKNTVYVQMNSLKPEDTAFYYCAARWTRQRYRTSYYSWGQGTQVTVSS | high polyreactivity
QVQLVESGGGLVQAGVSLRLSCAASGSTFVGYAMGWYRQAPGKERELVAAISYSGGSTYYADSVKGRFTISRDNAKNTVYLQMHSLKPEDTAVYYCAAEWSRHYYYGPRYDYWGQGSQVTVSS | low polyreactivity
QVQLVESGGGLVQAGGSLRLSCAASGFTFQAYAMGWYRQAPGKERELVAAIRSRGDSTYYADSVKGRFTISRDNAKNTVYLQMNSLKPEDTAVYYCNVLGYSYWGQGTQVTVSS | high polyreactivity
QVQLVESGGGLVQAGGSLRLSCAASGSIFGRYTMGWYRQAPGKERELVAAISWGGGSTYYADSVKGRFTISRDNAKNSVYLQMNSLKPEDTAVYYCAADTYWAIDPIYDYWGQGTQVTVSS | low polyreactivity
QVQLVESGGGLVQAGGSLRLICAASGSILVSYARGWYRQAPGKERELVAAITSGGRTKYADSVKGRFTISRDNAKNTVYLQMNSLKPEDNAVYYCAADDPLSYQFDYWGQGTQVTVSS | high polyreactivity
QVQLVESGGCLIKEVGSLRLSCAASGNIFVFYGKGWYRQAPGKERELVAAIDSGGSSTYYADSVKGRFTISRDNAKNTVYLKMKSLKPEDTAFDYCSARPYYSWNYDYWGQGTQVTVSS | low polyreactivity
QVQLVESGGGLVQAGGSLRLSCAASGNIFFVYAMGWYRQAPGKERELVATITWRGDSTNYADSVKGRFTISRDNAKNTVYLQMNSLKPEDTAVYYCNAEDSYYTFEGDSWGQGTQVTVSS | low polyreactivity
QVQLVESGGGLLQAGGSLRLSCAASGRIFDRNAMGWYRQAPGKERELVATISSGDTTDYADSVKGRFTISRDNAKNTVYLQMNSLKPEDTAVYYITIYNYWGQGTQVTVSS | low polyreactivity
QVHLVESGGGLVQAGGSLRLSCAASGITFATYAMGWYRQAPGKERELVAAISGGGGRTYYADSVKGRFTISRDNAKNSVYLQMNSLKPEDTAVYYCATSQRSSQFYHWGQGTQVTVSS | high polyreactivity
